Like-named read-outs stand apart in the source and are kept apart here.
What was measured:
[1] = molecular target: T1, HLA-A*02:01 in complex with the MAGE-A4 peptide … (human); test: SPR (Biacore T200), HLA-A*02:01/MAGE-A4 peptide complex on streptavidin chip, 1:1 Langmuir fit
T1 construct: Recombinant complex as immobilised (500 RU) for SPR; also called HLA-A2/MAGE-A4 complex; pMHC-MAGE-A4 antigen
Experimental: Affinity characterization of HLA-A2/MAGE-A4×CD3 bispecific antibodies was performed by surface plasmon resonance (SPR). All experiments were conducted using a Biacore™ T200 Device (Cytiva). To determine the kinetic parameters of the binding of the bispecific antibodies to the HLA-A2/MAGE-A4 complex, a streptavidin chip (SAHC30M, XanTec) was coated according to the manufacturer's instructions with 500 RU HLA-A*02:01 in complex with the MAGE-A4 peptide. The resulting affinities presented herein correspond to the measurements performed with the respective monovalent antigen binding proteins. […] Uncoated channels were used for referencing. Data fitting was performed using a 1:1 Langmuir model.

[2] = molecular target: T2, MAGE-A4 peptide … presented by HLA-A*02:01 on cells (human); test: cell-based or functional assay
[3] = molecular target: CD3 heterodimer (Acro Biosystems) (UniProt P07766 23-126); test: SPR (Biacore T200), CD3 heterodimer on HC30M chip, 1:1 Langmuir fit
[4] = molecular target: T2, MAGE-A4 peptide … presented by …; test: cell-based or functional assay; remark: listed apart in the source

Chain of CD3 heterodimer (Acro Biosystems) (P07766 23-126, one chain of several): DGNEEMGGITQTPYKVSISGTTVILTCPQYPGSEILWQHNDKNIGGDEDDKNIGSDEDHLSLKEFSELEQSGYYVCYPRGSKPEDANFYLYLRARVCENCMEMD

B1: CDR-3 (bispecific antibody)
heavy: EVQLVESGGGSVQPGGSLRLSCAASGFTFSTYAMNWVRQAPGKGLEWVGRIRSKANNYATYYADSVKGRFTISRDDSKNTLYLQMNSLRAEDTATYYCVRHGNFGDSYVSWFAYWGQGTTVTVSSASTKGPSVFPLAPSSKSTSGGTAALGCLVKDYFPEPVTVSWNSGALTSGVHTFPAVLQSSGLYSLSSVVTVPSSSLGTQTYICNVNHKPSNTKVDKRVEPKSCGGGGSEVQLVESGGGLAQAGGSLRVSCVASGRPFTKYAWGWFRQAPGKAREFVATITWDGGKTDYADSVKGRFTISKDSAENSIYLQMNSLKPEDTAVYYCAADRNYCVGHRCYVRPDDYDYWGQGTQVTVSS
light: AVVTQEPSLTVSPGGTVTLTCGSSTGAVTTSNYANWVQQKPGKSPRGLIGGTNKRAPGVPARFSGSLLGGKAALTISGAQPEDEADYYCALWYSNHWVFGGGTKLTVLGTVAAPSVFIFPPSDEQLKSGTASVVCLLNNFYPREAKVQWKVDNALQSGNSQESVTEQDSKDSTYSLSSTLTLSKADYEKHKVYACEVTHQGLSSPVTKSFNRGEC
notes: no Fc; also called Format #3; monovalent Fab-VHH
[1]
  Kd: 1.9 nM
[2]
  U20S cell killing, IC50: 0.24 nM

B2: CDR-9 (bispecific antibody)
heavy: EVQLVESGGGLVQPGGSLRLSCAASGFTFSTYAMNWVRQAPGKGLEWVGRIRSKANNYATYYADSVKGRFTISRDDSKNTLYLQMNSLRAEDTAVYYCVRHGNFGDSYVSWFAYWGQGTLVTVSSASTKGPSVFPLAPSSKSTSGGTAALGCLVKDYFPEPVTVSWNSGALTSGVHTFPAVLQSSGLYSLSSVVTVPSSSLGTQTYICNVNHKPSNTKVDKRVEPKSCGGGGSEVQLVESGGGLVQPGGSLRLSCVASGRPFTKYAWGWFRQAPGKAREFVATITWDGGKTDYADSVKGRFTISKDSAKNSIYLQMNSLRAEDTAVYYCAADRNYCVGHRCYVRPDDYDYWGQGTLVTVSS
light: QAVVTQEPSLTVSPGGTVTLTCGSSTGAVTTSNYANWVQQKPGKSPRGLIGGTNKRAPGVPARFSGSLLGGKAALTISGAQPEDEADYYCALWYSNHWVFGGGTKLTVLGTVAAPSVFIFPPSDEQLKSGTASVVCLLNNFYPREAKVQWKVDNALQSGNSQESVTEQDSKDSTYSLSSTLTLSKADYEKHKVYACEVTHQGLSSPVTKSFNRGECGGGGSEVQLVESGGGLVQPGGSLRLSCVASGRPFTKYAWGWFRQAPGKAREFVATITWDGGKTDYADSVKGRFTISKDSAKNSIYLQMNSLRAEDTAVYYCAADRNYCVGHRCYVRPDDYDYWGQGTLVTVS
notes: no Fc
[3]
  Kd: 54 nM

B3: CDR-4 (bispecific antibody)
heavy: EVQLVESGGGLAQAGGSLRVSCVASGRPFTKYAWGWFRQAPGKAREFVATITWDGGKTDYADSVKGRFTISKDSAENSIYLQMNSLKPEDTAVYYCAADRNYCVGHRCYVRPDDYDYWGQGTQVTVSSGGGGSEVQLVESGGGSVQPGGSLRLSCAASGFTFSTYAMNWVRQAPGKGLEWVGRIRSKANNYATYYADSVKGRFTISRDDSKNTLYLQMNSLRAEDTATYYCVRHGNFGDSYVSWFAYWGQGTTVTVSSASTKGPSVFPLAPSSKSTSGGTAALGCLVKDYFPEPVTVSWNSGALTSGVHTFPAVLQSSGLYSLSSVVTVPSSSLGTQTYICNVNHKPSNTKVDKRVEPKSC
light: AVVTQEPSLTVSPGGTVTLTCGSSTGAVTTSNYANWVQQKPGKSPRGLIGGTNKRAPGVPARFSGSLLGGKAALTISGAQPEDEADYYCALWYSNHWVFGGGTKLTVLGTVAAPSVFIFPPSDEQLKSGTASVVCLLNNFYPREAKVQWKVDNALQSGNSQESVTEQDSKDSTYSLSSTLTLSKADYEKHKVYACEVTHQGLSSPVTKSFNRGEC
notes: no Fc; also called Format #4; monovalent Fab-VHH HLA-A2/MAGE-A4 x CD3 bispecific
[1]
  Kd: 1.3 nM
[2]
  U20S cell killing, IC50: 0.5 nM

B4: CDR-1 (bispecific antibody)
heavy: EVQLVESGGGSVQPGGSLRLSCAASGFTFSTYAMNWVRQAPGKGLEWVGRIRSKANNYATYYADSVKGRFTISRDDSKNTLYLQMNSLRAEDTATYYCVRHGNFGDSYVSWFAYWGQGTTVTVSSASTKGPSVFPLAPSSKSTSGGTAALGCLVKDYFPEPVTVSWNSGALTSGVHTFPAVLQSSGLYSLSSVVTVPSSSLGTQTYICNVNHKPSNTKVDKRVEPKSC
light: EVQLVESGGGLAQAGGSLRVSCVASGRPFTKYAWGWFRQAPGKAREFVATITWDGGKTDYADSVKGRFTISKDSAENSIYLQMNSLKPEDTAVYYCAADRNYCVGHRCYVRPDDYDYWGQGTQVTVSSGGGGSAVVTQEPSLTVSPGGTVTLTCGSSTGAVTTSNYANWVQQKPGKSPRGLIGGTNKRAPGVPARFSGSLLGGKAALTISGAQPEDEADYYCALWYSNHWVFGGGTKLTVLGTVAAPSVFIFPPSDEQLKSGTASVVCLLNNFYPREAKVQWKVDNALQSGNSQESVTEQDSKDSTYSLSSTLTLSKADYEKHKVYACEVTHQGLSSPVTKSFNRGEC
notes: no Fc; also called Format #1; monovalent Fab-VHH HLA-A2/MAGE-A4 x CD3 bispecific
[1]
  Kd: 1.5 nM
[2]
  U20S cell killing, IC50: 0.1 nM

B5: CDR-2 (bispecific antibody)
heavy: EVQLVESGGGSVQPGGSLRLSCAASGFTFSTYAMNWVRQAPGKGLEWVGRIRSKANNYATYYADSVKGRFTISRDDSKNTLYLQMNSLRAEDTATYYCVRHGNFGDSYVSWFAYWGQGTTVTVSSASTKGPSVFPLAPSSKSTSGGTAALGCLVKDYFPEPVTVSWNSGALTSGVHTFPAVLQSSGLYSLSSVVTVPSSSLGTQTYICNVNHKPSNTKVDKRVEPKSC
light: AVVTQEPSLTVSPGGTVTLTCGSSTGAVTTSNYANWVQQKPGKSPRGLIGGTNKRAPGVPARFSGSLLGGKAALTISGAQPEDEADYYCALWYSNHWVFGGGTKLTVLGTVAAPSVFIFPPSDEQLKSGTASVVCLLNNFYPREAKVQWKVDNALQSGNSQESVTEQDSKDSTYSLSSTLTLSKADYEKHKVYACEVTHQGLSSPVTKSFNRGECGGGGSEVQLVESGGGLAQAGGSLRVSCVASGRPFTKYAWGWFRQAPGKAREFVATITWDGGKTDYADSVKGRFTISKDSAENSIYLQMNSLKPEDTAVYYCAADRNYCVGHRCYVRPDDYDYWGQGTQVTVSS
notes: no Fc; also called Format #2; monovalent Fab-VHH HLA-A2/MAGE-A4 x CD3 bispecific
[1]
  Kd: 2.6 nM
[2]
  U20S cell killing, IC50: 0.18 nM

B6: CDR-5 (bispecific antibody)
heavy: EVQLVESGGGSVQPGGSLRLSCAASGFTFSTYAMNWVRQAPGKGLEWVGRIRSKANNYATYYADSVKGRFTISRDDSKNTLYLQMNSLRAEDTATYYCVRHGNFGDSYVSWFAYWGQGTTVTVSSASTKGPSVFPLAPSSKSTSGGTAALGCLVKDYFPEPVTVSWNSGALTSGVHTFPAVLQSSGLYSLSSVVTVPSSSLGTQTYICNVNHKPSNTKVDKRVEPKSCGGGGSEVQLVESGGGLAQAGGSLRVSCVASGRPFTKYAWGWFRQAPGKAREFVATITWDGGKTDYADSVKGRFTISKDSAENSIYLQMNSLKPEDTAVYYCAADRNYCVGHRCYVRPDDYDYWGQGTQVTVSS
light: EVQLVESGGGLAQAGGSLRVSCVASGRPFTKYAWGWFRQAPGKAREFVATITWDGGKTDYADSVKGRFTISKDSAENSIYLQMNSLKPEDTAVYYCAADRNYCVGHRCYVRPDDYDYWGQGTQVTVSSGGGGSAVVTQEPSLTVSPGGTVTLTCGSSTGAVTTSNYANWVQQKPGKSPRGLIGGTNKRAPGVPARFSGSLLGGKAALTISGAQPEDEADYYCALWYSNHWVFGGGTKLTVLGTVAAPSVFIFPPSDEQLKSGTASVVCLLNNFYPREAKVQWKVDNALQSGNSQESVTEQDSKDSTYSLSSTLTLSKADYEKHKVYACEVTHQGLSSPVTKSFNRGEC
[4]
  U20S cell killing, IC50: 0.01 nM

B7: CDR-10 (bispecific antibody)
heavy: EVQLVESGGGLVQPGGSLRLSCAASGFTFSTYAMNWVRQAPGKGLEWVGRIRSKYNNYATYYADSVKGRFTISRDDSKNTLYLQMNSLRAEDTAVYYCVRHGNFGDSYVSWFAYWGQGTLVTVSSASTKGPSVFPLAPSSKSTSGGTAALGCLVKDYFPEPVTVSWNSGALTSGVHTFPAVLQSSGLYSLSSVVTVPSSSLGTQTYICNVNHKPSNTKVDKRVEPKSCGGGGSEVQLVESGGGLVQPGGSLRLSCVASGRPFTKYAWGWFRQAPGKAREFVATITWDGGKTDYADSVKGRFTISKDSAKNSIYLQMNSLRAEDTAVYYCAADRNYCVGHRCYVRPDDYDYWGQGTLVTVSS
light: QAVVTQEPSLTVSPGGTVTLTCGSSTGAVTTSNYANWVQQKPGKSPRGLIGGTNKRAPGVPARFSGSLLGGKAALTISGAQPEDEADYYCALWYSNHWVFGGGTKLTVLGTVAAPSVFIFPPSDEQLKSGTASVVCLLNNFYPREAKVQWKVDNALQSGNSQESVTEQDSKDSTYSLSSTLTLSKADYEKHKVYACEVTHQGLSSPVTKSFNRGECGGGGSEVQLVESGGGLVQPGGSLRLSCVASGRPFTKYAWGWFRQAPGKAREFVATITWDGGKTDYADSVKGRFTISKDSAKNSIYLQMNSLRAEDTAVYYCAADRNYCVGHRCYVRPDDYDYWGQGTLVTVSS
notes: no Fc
[3]
  Kd: 11 nM

B8: CDR-11 (bispecific antibody)
heavy: EVQLVESGGGLVQPGGSLRLSCAASGFTFSTYAMNWVRQAPGKGLEWVGRIRSKYNNYATYYADSVKGRFTISRDDSKNTLYLQMNSLRAEDTAVYYCVRHGNFGNSYVSWFAYWGQGTLVTVSSASTKGPSVFPLAPSSKSTSGGTAALGCLVKDYFPEPVTVSWNSGALTSGVHTFPAVLQSSGLYSLSSVVTVPSSSLGTQTYICNVNHKPSNTKVDKRVEPKSCGGGGSEVQLVESGGGLVQPGGSLRLSCVASGRPFTKYAWGWFRQAPGKAREFVATITWDGGKTDYADSVKGRFTISKDSAKNSIYLQMNSLRAEDTAVYYCAADRNYCVGHRCYVRPDDYDYWGQGTLVTVSS
light: QAVVTQEPSLTVSPGGTVTLTCRSSTGAVTTSNYANWVQQKPGQAPRGLIGGTNKRAPGVPARFSGSLLGGKAALTISGAQPEDEADYYCALWYSNHWVFGGGTKLTVLGTVAAPSVFIFPPSDEQLKSGTASVVCLLNNFYPREAKVQWKVDNALQSGNSQESVTEQDSKDSTYSLSSTLTLSKADYEKHKVYACEVTHQGLSSPVTKSFNRGECGGGGSEVQLVESGGGLVQPGGSLRLSCVASGRPFTKYAWGWFRQAPGKAREFVATITWDGGKTDYADSVKGRFTISKDSAKNSIYLQMNSLRAEDTAVYYCAADRNYCVGHRCYVRPDDYDYWGQGTLVTVSS
notes: no Fc
[3]
  Kd: 1.2 nM

— patent US20250002586A1 (CDR LIFE, published 2025)
